Source: doi:10.1101/2020.09.22.307744 (bioRxiv, 2020)
Where two headings read alike, the source gives them in different places. Each block holds one molecule with its values, some of them ahead of it.

Assays:
Experiment in all cases: MST
[1] = biological target: Luminal domain of human PERK (PKR-like endoplasmic reticulum kinase), His-tagged (human) (UniProt Q9NZJ5)
[2] = biological target: Luminal domain of human ATF6 (activating transcription factor 6), His-tagged (human) (UniProt P18850)
[3] = biological target: Luminal domain of human IRE1α (inositol-requiring enzyme 1α), His-tagged (human) (UniProt O75460)
[4] = biological target: Human recombinant GRP78 (BiP, binding immunoglobulin protein) (human, UniProt P11021 19-654)
Sequence of Human recombinant GRP78 (BiP, binding immunoglobulin protein) (P11021 19-654): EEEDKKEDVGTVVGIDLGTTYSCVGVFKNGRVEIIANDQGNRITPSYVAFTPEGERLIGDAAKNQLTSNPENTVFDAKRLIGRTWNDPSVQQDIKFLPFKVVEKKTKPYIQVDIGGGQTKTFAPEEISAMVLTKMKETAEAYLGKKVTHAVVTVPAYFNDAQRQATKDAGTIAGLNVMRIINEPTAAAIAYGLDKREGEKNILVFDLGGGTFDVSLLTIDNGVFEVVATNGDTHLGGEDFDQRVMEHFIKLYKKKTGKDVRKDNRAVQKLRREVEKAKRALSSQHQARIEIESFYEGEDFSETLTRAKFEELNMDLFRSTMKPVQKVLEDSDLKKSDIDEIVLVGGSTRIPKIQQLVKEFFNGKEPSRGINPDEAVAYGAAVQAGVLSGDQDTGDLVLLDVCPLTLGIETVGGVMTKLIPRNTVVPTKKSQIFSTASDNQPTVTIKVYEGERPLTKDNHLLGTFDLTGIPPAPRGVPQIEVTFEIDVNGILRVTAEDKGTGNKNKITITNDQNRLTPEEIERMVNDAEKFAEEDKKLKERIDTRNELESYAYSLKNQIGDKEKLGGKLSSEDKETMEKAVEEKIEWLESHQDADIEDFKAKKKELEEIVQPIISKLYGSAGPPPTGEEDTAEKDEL

MST [5] = biological target: the molecule itself
MST [6] = biological target: the molecule itself; remark: listed apart in the source
MST [7] = biological target: the molecule itself; remark: listed apart in the source

Kd [1]: 0.384 µM
Kd [2]: 0.347 µM
Kd [3]: 0.0947 µM
Molecule: Mesencephalic astrocyte-derived neurotrophic factor (MANF), recombinant human (from UniProt P55145 25-182) (natural protein)

Kd [4]: 0.021 µM
B1: Luminal domain of human ATF6 (activating transcription factor 6), His-tagged (domain or fragment, UniProt P18850 399-670, looked up)
chain: EQDSRRMNPSVSPANQRRHLLGFSAKEAQDTSDGIIQKNSYRYDHSVSNDKALMVLTEEPLLYIPPPPCQPLINTTESLRLNHELRGWVHRHEVERTKSRRMTNNQQKTRILQGALEQGSNSQLMAVQYTETTSSISRNSGSELQVYYASPRSYQDFFEAIRRRGDTFYVVSFRRDHLLLPATTHNKTTRPKMSIVLPAININENVINGQDYEVMMQIDCQVMDTRILHIKSSSVPPYLRDQQRNQTNTFFGSPPAATEATHVVSTIPESLQ
modifications: glycosylated (PNGase F assay); Monolith His-Tag Labeling Kit RED-tris-NTA dye on the His-tag

Kd [4]: 0.119 µM
B2: Luminal domain of human IRE1α (inositol-requiring enzyme 1α), His-tagged (domain or fragment, UniProt O75460 19-443, looked up)
chain: IFGSTSTVTLPETLLFVSTLDGSLHAVSKRTGSIKWTLKEDPVLQVPTHVEEPAFLPDPNDGSLYTLGSKNNEGLTKLPFTIPELVQASPCRSSDGILYMGKKQDIWYVIDLLTGEKQQTLSSAFADSLCPSTSLLYLGRTEYTITMYDTKTRELRWNATYFDYAASLPEDDVDYKMSHFVSNGDGLVVTVDSESGDVLWIQNYASPVVAFYVWQREGLRKVMHINVAVETLRYLTFMSGEVGRITKWKYPFPKETEAKSKLTPTLYVGKYSTSLYASPSMVHEGVAVVPRGSTLPLLEGPQTDGVTIGDKGECVITPSTDVKFDPGLKSKNKLNYLRNYWLLIGHHETPLSASTKMLERFPNNLPKHRENVIPADSEKKSFEEVINLVDQTSENAPTTVSRDVEEKPAHAPARPEAPVDSMLKD
modifications: labelled copy: Monolith His-Tag Labeling Kit RED-tris-NTA dye on the His-tag (legends also say Alexa647-labeled through His-tag)
Kd (MST [5]): 0.0073 µM
Kd (MST [6]): 0.0027 µM
Kd (MST [7]): 0.04 µM

Kd [4]: 0.0141 µM
B3: Luminal domain of human PERK (PKR-like endoplasmic reticulum kinase), His-tagged (domain or fragment, UniProt Q9NZJ5 30-514, looked up)
chain: AGRARGLPAPTAEAAFGLGAAAAPTSATRVPAAGAVAAAEVTVEDAEALPAAAGEQEPRGPEPDDETELRPRGRSLVIISTLDGRIAALDPENHGKKQWDLDVGSGSLVSSSLSKPEVFGNKMIIPSLDGALFQWDQDRESMETVPFTVESLLESSYKFGDDVVLVGGKSLTTYGLSAYSGKVRYICSALGCRQWDSDEMEQEEDILLLQRTQKTVRAVGPRSGNEKWNFSVGHFELRYIPDMETRAGFIESTFKPNENTEESKIISDVEEQEAAIMDIVIKVSVADWKVMAFSKKGGHLEWEYQFCTPIASAWLLKDGKVIPISLFDDTSYTSNDDVLEDEEDIVEAARGATENSVYLGMYRGQLYLQSSVRISEKFPSSPKALESVTNENAIIPLPTIKWKPLIHSPSRTPVLVGSDEFDKCLSNDKFSHEEYSNGALSILQYPYDNGYYLPYYKRERNKRSTQITVRFLDNPHYNKNIRKKD
modifications: Monolith His-Tag Labeling Kit RED-tris-NTA dye on the His-tag

The remaining lines, values behind:

Molecule: C-terminal domain of human MANF (C-MANF), E.coli produced (domain or fragment)
Kd [1]: 1.4 µM
Kd [2]: 1.3 µM
Kd [3]: 0.241 µM

Molecule: C-terminal domain of human MANF (C-MANF), chemically synthesized (domain or fragment)
Kd [1]: 0.0076 µM
Kd [2]: 0.0098 µM
Kd [3]: 0.0095 µM

Molecule: MANF K128A C130S, recombinant human mutant protein (from UniProt P55145 25-182) (natural protein)
Kd [3]: 0.055 µM
